In article PMC6726503:

Target: T1, human TGF-β2 (human)
T1 sequence (P61812 303-414, looked up): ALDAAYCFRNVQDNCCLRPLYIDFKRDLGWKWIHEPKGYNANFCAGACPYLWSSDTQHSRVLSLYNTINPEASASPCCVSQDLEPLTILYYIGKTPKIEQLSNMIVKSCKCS
Test: SPR

- Kd: 0.511 nM
- koff: 0.000755 s⁻¹
- kon: 1.48e+06 M⁻¹ s⁻¹
B1: full-length rat betaglycan ectodomain (domain or fragment)
chain: GPEPSTRCELSPINASHPVQALMESFTVLSGCASRGTTGLPREVHVLNLRSTDQGPGQRQREVTLHLNPIASVHTHHKPIVFLLNSPQPLVWHLKTERLAAGVPRLFLVSEGSVVQFPSGNFSLTAETEERNFPQENEHLLRWAQKEYGAVTSFTELKIARNIYIKVGEDQVFPPTCNIGKNFLSLNYLAEYLQPKAAEGCVLPSQPHEKEVHIIELITPSSNPYSAFQVDIIVDIRPAQEDPEVVKNLVLILKCKKSVNWVIKSFDVKGNLKVIAPNSIGFGKESERSMTMTKLVRDDIPSTQENLMKWALDNGYRPVTSYTMAPVANRFHLRLENNEEMRDEEVHTIPPELRILLDPDHPPALDNPLFPGEGSPNGGLPFPFPDIPRRGWKEGEDRIPRPKQPIVPSVQLLPDHREPEEVQGGVDIALSVKCDHEKMVVAVDKDSFQTNGYSGMELTLLDPSCKAKMNGTHFVLESPLNGCGTRHRRSTPDGVVYYNSIVVQAPSPGDSSGWPDGYEDLESGDNGFPGDGDEGETAPLSRAGVVVFNCSLRQLRNPSGFQGQLDGNATFNMELYNTDLFLVPSPGVFSVAENEHVYVEVSVTKADQDLGFAIQTCFLSPYSNPDRMSDYTIIENICPKDDSVKFYSSKRVHFPIPHAEVDKKRFSFLFKSVFNTSLLFLHCELTLCSRKKGSLKLPRCVTPDDACTSLDATMIWTMMQNKKTFTKPLAVVLQVDYKENVPSTKDSSPIPPPPPQIFHGLDTLTV
